Results reported in US20200316163A1 (APELLIS PHARMACEUTICALS, published 2020).

Tests used:
Assay in all cases: cell-based or functional assay
[1] = molecular target: T1, human complement component C3 (human, UniProt P01024 23-1663)
[2] = molecular target: T1, human complement component C3; remark: listed apart in the source
[3] = molecular target: T1, human complement component C3; remark: listed apart in the source
[4] = molecular target: T1, human complement component C3; remark: listed apart in the source

B1: CA28-AEEAc-Lys(mPEG40K-succinyl) (peptide)
peptide: ICVWQDWGAHRCTK
modifications: N-terminal acetyl; 1-methyl-Trp at position 4; disulfide Cys2-Cys12; AEEAc spacer between Thr13 and Lys; C-terminal amide; linear 40 kD mPEG (NOF ME-400CS) on the Lys side chain
- IC50 (read off the curve), inhibition of classical pathway complement activation (C3b deposition ELISA) [1]: ~700 nM

B2: CA28-AEEAc-Lys-(PEG30k) (peptide)
peptide: ICVWQDWGAHRCTK
modifications: not fully specified; N-terminal acetyl; 1-methyl-Trp at position 4; disulfide Cys2-Cys12; AEEAc (8-amino-3,6-dioxaoctanoyl) spacer between Thr13 and Lys; C-terminal amide; linear monofunctional 30 kD PEG (NOF ME-300GS) on the Lys side …
- IC50, classical complement inhibition assay (C3b deposition ELISA, human plasma) [2]: 1260 nM

B3: CA28-AEEAc-Lys(mPEG40K-carbonyl) (peptide)
peptide: ICVWQDWGAHRCTK
modifications: not fully specified; N-terminal acetyl; 1-methyl-Trp at position 4; disulfide Cys2-Cys12; AEEAc spacer between Thr13 and Lys; C-terminal amide; linear 40 kD mPEG (NOF ME-400TS) on the Lys side chain
- IC50 (read off the curve), inhibition of classical pathway complement activation (C3b deposition ELISA) [1]: ~600 nM

B4: (CA28-AEEAc)8-PEG40k (peptide)
peptide: ICVWQDWGAHRCTK
modifications: N-terminal acetyl; 1-methyl-Trp at position 4; disulfide Cys2-Cys12; AEEAc spacer between Thr13 and Lys; C-terminal amide; Lys side chain coupled to an arm of an eight-arm 40 kD PEG (NOF HGEO-400GS)
- IC50 on a molar basis (corrected for 7.5 CA28 moieties per molecule), classical complement inhibition assay [3]: ~260 nM
- IC50, classical complement inhibition assay (C3b deposition ELISA, human plasma), as a function of CA28 moiety concentration [2]: 1930 nM

B5: CA28-2GS-BF (bifunctionalized PEG-based compstatin analog, GS type) (peptide)
peptide: ICVWQDWGAHRCTK
modifications: not fully specified; N-terminal acetyl; 1-methyl-Trp at position 4; disulfide Cys2-Cys12; AEEAc spacer between Thr13 and Lys; C-terminal amide; Lys side chain coupled to one end of a linear bifunctional 40 kD PEG (glutaryl, GS type; amide plus ester linkage)
- % Parent in Q1 (Type III cells with high C3d), modified Ham's test, 50 ug/ml [4]: 0.01%
- % Parent in Q2 (Type I and II cells with high C3d), modified Ham's test, 50 ug/ml [4]: 0.01%
- % Parent in Q3 (Type III cells without significant C3d), modified Ham's test, 50 ug/ml [4]: 61.5%
- % Parent in Q4 (Type I and II cells without significant C3d), modified Ham's test, 50 ug/ml [4]: 38.5%

B6: CA28-AEEAc-Lys-(PEG40k) (peptide)
peptide: ICVWQDWGAHRCTK
modifications: not fully specified; N-terminal acetyl; 1-methyl-Trp at position 4; disulfide Cys2-Cys12; AEEAc spacer between Thr13 and Lys; C-terminal amide; linear monofunctional 40 kD mPEG (NOF ME-400GS) on the Lys side chain
- IC50 (read off the curve), inhibition of classical pathway complement activation (C3b deposition ELISA) [1]: ~600 nM
- IC50, classical complement inhibition assay (C3b deposition ELISA, human plasma) [2]: 1290 nM

B7: CA28-AEEAc-Lys(mPEG40K-hexanoyl) (peptide)
peptide: ICVWQDWGAHRCTK
modifications: N-terminal acetyl; 1-methyl-Trp at position 4; disulfide Cys2-Cys12; AEEAc spacer between Thr13 and Lys; C-terminal amide; linear 40 kD mPEG (NOF ME-400HS) on the Lys side chain
- IC50 (read off the curve), inhibition of classical pathway complement activation (C3b deposition ELISA) [1]: ~700 nM
